The target in assay [1] is PapDG chaperone-adhesin complex (His-tagged PapD, class II PapG), purified and coumarin-labeled (Escherichia coli) (UniProt P15319). Description: other fluorescence titration.
In assay [2] the target is PapC usher (Escherichia coli) (UniProt P07110). The note with it: cited from earlier work.

As a reminder, the Kd is the concentration at which binding is half-saturated.

With “PapC F21A, purified, His-tag cleaved off (pQY21) (from UniProt P07110 25-836) (natural protein)”, the dissociation constant (Kd) in assay [1] was 62 nM.

On to “PapC R652A, purified, His-tag cleaved off (pQY652) (natural protein)”, for which the Kd in assay [1] came out at 1590 nM.

Substance “PapC usher, wild type, purified, His-tag cleaved off (pDG2) (from UniProt P07110 25-836) (natural protein)” displayed an equilibrium dissociation constant (Kd) in assay [1] of 59 nM.

For the substance “PapDG chaperone-subunit complex (from UniProt P15319)”, in assay [2], the Kd was 90 nM.

(Values after article PMC2911020.)
